The values that follow come from patent publication US5576288A, “Fibroblast growth factor conjugates” (The Salk Institute For Biological Studies, priority 1994, dated 1996).

In data set [1] the test system is BHK cells. The data set can be described thus: competition of cytotoxicity by preincubation with basic FGF or NGF. In kind it is cell-based, baby hamster. The note with it: BHK cells preincubated one hour; basic FGF-SAP 10^-10 M; up to thousand-fold excess; FIG. 4. As to the method: Basic FGF-SAP was used at a concentration of 10^-10 M basic FGF-AP and C: preincubation with equimolar free of basic FGF; D: 10-fold excess of free basic FGF; E: 100-fold excess of basic FGF; F: 1000-fold excess of basic FGF; G: equimolar incubation with equimolar free NGF; H: 10-fold molar excess; I: 100-fold molar excess, J: […].
Specificity of the cytotoxic agent was examined in competition experiments in an effort to establish that the mitotoxic activity of the conjugate is receptor specific. BHK cells were preincubated for one hour with various levels of basic FGF or nerve growth factor (NGF) prior to treatment of the cells with the cytotoxic agent. […] In contrast, a thousand-fold excess of NGF has no effect.

Data set [2] has as its system BHK cells. The experiment in a line: cytotoxic activity on BHK cells (cell count after two days). The settings on record: highest dose tested 10^-8 M, FIG. 3. Format: cell-based, baby hamster. The procedure:
The protein synthesis inhibition activity of the SAP protein was compared to the protein synthesis inhibition activity of the basic FGF-SAP conjugate in in vitro assays of protein synthesis as described in Siehn et al., Blood, 72:756-765 (1988), which is incorporated herein by reference. The cytotoxic activity of the conjugate was tested on baby hamster kidney fibroblasts (ATCC Accession No. CRL 6281). BHK cells were plated in 24 well plates at a concentration of 5000 cells/ml and incubated overnight at 37° C., 5% CO2. The following morning, HEPES-buffered DMEM and F-12 media (1:1) plus 5% FCS was aspirated from the wells and replaced with media alone or with media containing the conjugate, basic FGF or saporin. Two days later, the cells were washed twice, trypsinized and cell number determined with a Coulter Particle Counter (Coulter Electronics, Hialeah, Fla.).

“NGF: nerve growth factor used as competition control”: the “effect of preincubation on cytotoxic activity of basic FGF-SAP” value in data set [1] is “no effect”.
With “SAP: type-1 ribosome-inactivating protein isolated from the seeds of Saponaria officinalis”, the “toxic effect on BHK cell proliferation” value in data set [2] is reported as “no toxic effect”.
